Data on 52 molecules can be found in patent publication US7056679.

Sequences and labels used below:
B1: DGI-2-20R-3-A9 (peptide, not shown: large carriers)
peptide: LQIVRPAGWKMPGQVGYYIGAAAGAPVPYPDPLEPRP
B2: DGI-2-20F-3-D112 (peptide, not shown: large carriers)
peptide: YDQVWNSLLAAVLGGQELVNAAAGAPVPYPDPLEPRP
B3: DGI-2-40F-3-B10 (peptide, not shown: large carriers)
peptide: MQAASTLSTYMGAIRMGYPILHWDRGGVQRVDPGLYRGRVAAAGAPVPYPDPLEPRP
B4: DGI-2-20F-3-C12 (peptide, not shown: large carriers)
peptide: LTPYSLARSWLSGRPSTGATAAAGAPVPYPDPLEPRP
B5: DGL-2-20R-3-B6 (peptide, not shown: large carriers)
peptide: TSCQVMFLAGQHLLSRVPRLAAAGAPVPYPDPLEPRP
B6: DGI-2-20R-3-B7 (peptide, not shown: large carriers)
peptide: SWRLWVSGELQGDRRKGLRGAAAGAPVPYPDPLEPRP
B7: DGI-2-20R-3-C10 (peptide, not shown: large carriers)
peptide: SLSLYWDAQVGCEVFWGYCVAAAGAPVPYPDPLEPRP
B8: DGI-2-40F-3-C6 (peptide, not shown: large carriers)
peptide: QMFSKGNWLAHPEGGVALGLSRESQLFRSCREFGYCMGPMAAAGAPVPYPDPLEPRP
B9: DGI-2-20R-4-E4 (peptide, not shown: large carriers)
peptide: LTWGPQFGSLQVYSRHRGLPAAAGAPVPYPDPLEPRP
B10: DGL-2-40F-3-D10 (peptide, not shown: large carriers)
peptide: TLVTEGNKGSVKAHKDIGVWQLWWDWLSVTDSETVGRVSHAAAGAPVPYPDPLEPRP
B11: DGI-2-20C-3-C65 (peptide, not shown: large carriers)
peptide: TPDRCLIYSSIQCLLEYSARRGSADAAAGAPVPYPDPLEPRP
B12: DGL-2-20R-3-D6 (peptide, not shown: large carriers)
peptide: ACSVGTALVFPQRWWYLGRSAAAGAPVPYPDPLEPRP
B13: DGI-2-20R-4-G32 (peptide, not shown: large carriers)
peptide: LSVFRPGQFPHVGARGVSRTAAAGAPVPYPDPLEPRP
B14: DGI-2-20R-4-G8 (peptide, not shown: large carriers)
peptide: GMWIRPNGHMFLQGGYTARSAAAGAPVPYPDPLEPRP
B15: DGI-2-20F-3-C3 (peptide, not shown: large carriers)
peptide: FSSVLGLLDRRGVPVVVGEDAAAGAPVPYPDPLEPRP
B16: DGI-2-20R-4-H7 (peptide, not shown: large carriers)
peptide: LSHPMSPLRAASQMALTQGVAAAGAPVPYPDPLEPRP
B17: DGI-2-40F-3-D7 (peptide, not shown: large carriers)
peptide: ALRSLGSGGFGWQAGRASPQGMTHFPYFGWSGMPTARVRPAAAGAPVPYPDPLEPRP
B18: DGI-2-20R-4-G6 (peptide, not shown: large carriers)
peptide: PAMGHCMQVLGPVLEGRSRDQVGRAAAGAPVPYPDPLEPRP
B19: DGI-2-20R-4-F6 (peptide, not shown: large carriers)
peptide: GNKCFPPHDLFWDPCDQLQSAAAGAPVPYPDPLEPRP
B20: DGI-2-20F-3-C1 (peptide, not shown: large carriers)
peptide: GSVLERGCLEFSGFCFSLGHAAAGAPVPYPDPLEPRP
B21: DGI-2-40F-3-A24 (peptide, not shown: large carriers)
peptide: RCFQDGRMLALSPTYLIRRSVSPLVVGPLPTPAAAGAPVPYPDPLEPRP
B22: DGI-2-20C-4-H316 (peptide, not shown: large carriers)
peptide: RWSICRGLQYSIPGCAVEDLSDVMAAAAGAPVPYPDPLEPRP
B23: DGI-2-20F-3-B1 (peptide, not shown: large carriers)
peptide: LSRIWRGVIESAREVESRGIAAAGAPVPYPDPLEPRP
B24: DGI-2-20F-3-C2 (peptide, not shown: large carriers)
peptide: MAVLPAARDFGGVVQGGVSGAAAGAPVPYPDPLEPRP
B25: DGI-2-40F-3-D11 (peptide, not shown: large carriers)
peptide: LHFGSVMGWRPPGSLWSRPFGQVHPRSWSGSAAAGAPVPYPDPLEPRP
B26: DGI-2-20R-3-D5 (peptide, not shown: large carriers)
peptide: VAFGEQIRVAMAGTLWQRWRAAAGAPVPYPDPLEPRP
B27: DGI-2-40F-3-B122 (peptide, not shown: large carriers)
peptide: HSGNRQSGSRRTHLLNIFCSSDTFVFPGWSAYLSRVCPGDAAAGAPVPYPDPLEPRP
B28: DGI-2-20R-3-C12 (peptide, not shown: large carriers)
peptide: RWSLPAYLCRFVSQASCNSRAAAGAPVPYPDPLEPRP
B29: DGI-2-20F-3-A6 (peptide, not shown: large carriers)
peptide: FSSTGILLRSGRATAVGHVTAAAGAPVPYPDPLEPRP
B30: DGI-2-20F-4-E3 (peptide, not shown: large carriers)
peptide: RNWLDKDCVWMGDCGARAGEAAAGAPVPYPDPLEPRP
B31: DGI-2-20F-3-A7 (peptide, not shown: large carriers)
peptide: LSLLSVVVRSMGASAPQRQVAAAGAPVPYPDPLEPRP
B32: DGI-2-20R-4-H12 (peptide, not shown: large carriers)
peptide: MSTLQGPGHLFQMLRRASLGAAAGAPVPYPDPLEPRP
B33: DGI-2-40F-3-B116 (peptide, not shown: large carriers)
peptide: GVVRAQQGLRYELQGDRYRLRRTQWLTVTYCSPSWAFAGCAAAGAPVPYPDPLEPRP
B34: DGI-2-40F-3-B5 (peptide, not shown: large carriers)
peptide: RSRSSSGASGSMLRVQNHMVLGSWMVRQPMGSMTPFHGHGAAAGAPVPYPDPLEPRP
B35: DGI-2-40F-3-B11 (peptide, not shown: large carriers)
peptide: LAPMFLQNQVRTWAASRRPLPAGPSNARCETGSLSPWVPCAAAGAPVPYPDPLEPRP
B36: DGI-2-40F-4-F6 (peptide, not shown: large carriers)
peptide: SYRNFAMQSSLQVRRGSVVEDGTCWWEGVRCYSGAAAGAPVPYPDPLEPRP
B37: DGI-2-40F-3-D12 (peptide, not shown: large carriers)
peptide: QGSAHVVRPPGVYDVPWKVGMFFHPQNWPNSWGRAYFRSGAAAGAPVPYPDPLEPRP
B38: DGI-2-20F-3-B7 (peptide, not shown: large carriers)
peptide: WAGSTDLWQLWSLWVKPELRAAAGAPVPYPDPLEPRP
B39: DGI-2-40F-3-B95 (peptide, not shown: large carriers)
peptide: DYKTCVSQHVHPLFGEYFYHKVTHMSILSPTFRVTSLYGKAAAGAPVPYPDPLEPRP
B40: DGI-2-20R-4-E2 (peptide, not shown: large carriers)
peptide: TANGHRYGGCGLWCKWMSGMAAAGAPVPYPDPLEPRP
B41: DGI-2-40F-3-C92 (peptide, not shown: large carriers)
peptide: RFWSVSYQGGRVMCREWGYCLPIAAAGAPVPYPDPLEPRP
B42: DGI-2-40F-3-D9 (peptide, not shown: large carriers)
peptide: RRTSADTDQLSRWEGAQAFSSLRSALSERLDSLRPGLPPSAAAGAPVPYPDPLEPRP
B43: DGI-2-20R-4-E5 (peptide, not shown: large carriers)
peptide: LHRLGQSMGGTLDHLQGWGVAAAGAPVPYPDPLEPRP
B44: DGI-2-20C-3-D12 (peptide, not shown: large carriers)
peptide: LVIQCSASVVACDLYWNYVGCLAAGAAAGAPVPYPDPLEPRP
B45: DGI-2-40F-3-D6 (peptide, not shown: large carriers)
peptide: GLEPVPFQTDKRIAMGWTREWLVNGYGAAHRRDARMQSGHAAAGAPVPYPDPLEPRP
B46: DGI-2-20F-3-B102 (peptide, not shown: large carriers)
peptide: GLRACDTYLGFCVGARRIDDAAAGAPVPYPDPLEPRP
B47: DGI-2-40F-3-B72 (peptide, not shown: large carriers)
peptide: PKDGAAFKGSDFIQGGQTVMERAPALWWRDGGGQWEAPSTAAAGAPVPYPDPLEPRP
B48: DGI-2-20R-4-E82 (peptide, not shown: large carriers)
peptide: DAGIGWVGSMWFPPGCIGACAAAGAPVPYPDPLEPRP
B49: DGI-2-40F-4-F12 (peptide, not shown: large carriers)
peptide: GLYRRAGDASVGFSRWGRFDCQVYFSVECLLGSSWGGYSAAAGAPVPYPDPLEPRP
B50: DGI-2-40F-3-C7 (peptide, not shown: large carriers)
peptide: HPWVTNMLVFQRPPPPGFWLSDTTPRQRNGLGQVERPSVDAAAGAPVPYPDPLEPRP
B51: DGI-2-40F-3-D72 (peptide, not shown: large carriers)
peptide: MGSLGPFGNINSLASGIGSVRNRPLLPLHGSPAAAGAPVPYPDPLEPRP
B52: DGI-2-40F-3-C52 (peptide, not shown: large carriers)
peptide: GLLFTSSPYQCFWVHCTLTMSPLSVLGDLSSTIGRMRASRAAAGAPVPYPDPLEPRP

The test has as its target lactate dehydrogenase (LDH). Briefly: phage ELISA, 405 nm; LDH coated. (ELISA stands for enzyme-linked immunosorbent assay.)
On to B1, for which the LDH (OD) came out at 1 OD.

Take B2: the LDH (OD) stood at 1 OD.

B3 returned an LDH (OD) of 1 OD.

Consider B4, for which the LDH (OD) is 1 OD.

B5 came in with an LDH (OD) of 1 OD.

The molecule B6 returned an LDH (OD) of 1 OD.

B7 showed an LDH (OD) of 1 OD.

In turn, B8 returned an LDH (OD) of 0.8 OD.

Molecule B9 came in with an LDH (OD) of 1.2 OD.

B10 showed an LDH (OD) of 0.9 OD.

Turning to B11, the LDH (OD) is 1 OD.

With B12, the LDH (OD) came out at 1.1 OD.

For the molecule B13, the LDH (OD) worked out at 1.1 OD.

With B14, the LDH (OD) amounted to 1.1 OD.

B15 showed an LDH (OD) of 0.9 OD.

Molecule B16 returned an LDH (OD) of 1.2 OD.

B17: the LDH (OD) stood at 1 OD.

For B18, the LDH (OD) is 1.1 OD.

B19 returned an LDH (OD) of 1 OD.

B20 had an LDH (OD) of 1 OD.

The molecule B21 registered an LDH (OD) of 0.9 OD.

Take B22: the LDH (OD) amounted to 1 OD.

On to B23, for which the LDH (OD) was 0.9 OD.

B24 displayed an LDH (OD) of 1 OD.

Consider B25, for which the LDH (OD) was 1.3 OD.

As for B26, the LDH (OD) amounted to 1.1 OD.

B27 had an LDH (OD) of 0.8 OD.

In turn, B28 gave an LDH (OD) of 1 OD.

B29 came in with an LDH (OD) of 1.1 OD.

In the case of B30, the LDH (OD) worked out at 0.9 OD.

In turn, B31 gave an LDH (OD) of 0.9 OD.

The molecule B32 gave an LDH (OD) of 1.3 OD.

The molecule B33 displayed an LDH (OD) of 0.8 OD.

B34 had an LDH (OD) of 0.9 OD.

Regarding B35, the LDH (OD) came out at 0.9 OD.

In turn, B36 came in with an LDH (OD) of 1 OD.

For B37, the LDH (OD) was 1 OD.

Molecule B38 had an LDH (OD) of 0.9 OD.

B39: the LDH (OD) is 0.8 OD.

Consider B40, for which the LDH (OD) worked out at 1.1 OD.

B41 showed an LDH (OD) of 0.8 OD.

Molecule B42 came in with an LDH (OD) of 0.8 OD.

As for B43, the LDH (OD) was 1.1 OD.

Molecule B44 had an LDH (OD) of 1 OD.

In turn, B45 showed an LDH (OD) of 1 OD.

Take B46: the LDH (OD) amounted to 1 OD.

Molecule B47 had an LDH (OD) of 0.7 OD.

As to B48, the LDH (OD) came out at 1.1 OD.

In the case of B49, the LDH (OD) stood at 0.9 OD.

In turn, B50 had an LDH (OD) of 0.8 OD.

As to B51, the LDH (OD) is 1.1 OD.

Regarding B52, the LDH (OD) stood at 0.8 OD.
